Measured values: PMC12392933, “The SCARECROW‐LIKE transcription factor from Populus davidiana × P. bolleana simultaneously improved drought tolerance and plant growth through acetylation‐dependent mechanisms”

T1: PdbSCL1 (Populus davidiana x P. bolleana …, UniProt A0AAJ6V7V0 1-473)
T1 sequence: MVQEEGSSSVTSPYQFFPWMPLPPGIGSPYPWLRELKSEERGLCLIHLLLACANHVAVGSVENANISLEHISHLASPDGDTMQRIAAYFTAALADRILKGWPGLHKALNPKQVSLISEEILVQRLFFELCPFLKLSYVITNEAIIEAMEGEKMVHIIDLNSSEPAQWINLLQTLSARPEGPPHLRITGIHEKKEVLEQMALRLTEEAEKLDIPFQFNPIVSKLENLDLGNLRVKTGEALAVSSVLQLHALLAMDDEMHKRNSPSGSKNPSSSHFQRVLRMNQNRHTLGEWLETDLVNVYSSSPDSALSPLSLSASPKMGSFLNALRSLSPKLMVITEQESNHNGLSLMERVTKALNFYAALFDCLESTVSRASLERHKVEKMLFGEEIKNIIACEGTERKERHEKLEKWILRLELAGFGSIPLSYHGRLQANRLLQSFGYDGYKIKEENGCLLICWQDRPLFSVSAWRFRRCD

B1: PCF probe (3x TGGGCC) (dsDNA)
DNA 1: TGGGCCTGGGCCTGGGCC
DNA 2: GGCCCAGGCCCAGGCCCA
B2: NFY mutant competitor (CCAAT to TTTTT) (dsDNA)
DNA 1: TTTTTTTTTTTTTTTC
DNA 2: GAAAAAAAAAAAAAAA
B3: NFY probe (3x CCAAT) (dsDNA)
DNA 1: CCAATCCAATCCAATC
DNA 2: GATTGGATTGGATTGG
B4: ABRE probe (3x CACGTG) (dsDNA)
DNA 1: CACGTGCACGTGCACGTG
DNA 2: CACGTGCACGTGCACGTG

Legend:
PdbSCL1 [1] = molecular target: T1, PdbSCL1; assay: EMSA; Chemiluminescent EMSA kit (Beyotime), PAGE; buffer, salt, pH and temperature not stated; conditions: protein: recombinant; tags: MBP (pMALc5X); label: 3' biotin; blunt
PdbSCL1 [2] = molecular target: T1, PdbSCL1; assay: competition; EMSA, unlabelled mutant competitor; Chemiluminescent EMSA kit (Beyotime), PAGE; buffer, salt, pH and temperature not stated; conditions: protein: recombinant; tags: MBP (pMALc5X); label: unlabelled; blunt

Row | Binder | binding result (PdbSCL1 [1]) | binding result (PdbSCL1 [2])
1 | B1 | binds | –
2 | B2 | – | no binding
3 | B3 | binds | –
4 | B4 | binds | –
